Holding throughout (assay): SEC-MALS
On the technique in general: In gel filtration, larger molecules generally elute earlier.

The target in assay [1] is full-length Bacillus cereus MCM (BcMCM) (Bacillus cereus).
The target in assay [2] is BcMCM N399 truncation (Bacillus cereus).
Assay [3] deals with BcMCM C200 truncation (Bacillus cereus).

Several values for one entry are separate records, joined by “and”; a condition that tells them apart may be missing. Identical values can stand only once.

Take “full-length Bacillus cereus MCM (BcMCM) (enzyme)”: in assay [1], the stoichiometry N – broadly, the number of molecules, sites or subunits per partner or assembly – stood at 2.

With “BcMCM N399 truncation (domain or fragment)”, in assay [2], the stoichiometry N is 2 and 4.

In the case of “BcMCM C200 truncation (domain or fragment)”, the stoichiometry N in assay [3] is 2 and 3 and 4.

The values above are taken from publication PMC2715239.
